Assay results taken from EP4810516A1.

Molecular target: γ9δ2 TCR on human γ9δ2 T cells (human) (UniProt Q99603)
Assay: FACS, serially diluted antibody on γ9δ2 T cells, anti-human Fc secondary

γ9δ2 TCR on human γ9δ2 T cells (human), sequence (Q99603 21-122, stated change not applied, chain 1 of 2): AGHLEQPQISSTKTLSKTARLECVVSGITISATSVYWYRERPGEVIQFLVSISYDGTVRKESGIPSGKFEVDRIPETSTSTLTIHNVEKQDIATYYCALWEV
γ9δ2 TCR on human γ9δ2 T cells (human), sequence (A0JD36 20-115, stated change not applied, chain 2 of 2, further chain): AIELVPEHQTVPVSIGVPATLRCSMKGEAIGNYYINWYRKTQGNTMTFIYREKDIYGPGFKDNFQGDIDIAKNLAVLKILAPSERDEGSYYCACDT

EC50: 1.74 nM
Max MFI: 15000 MFI
B1: SDP01369 (antibody, human IgG1, kappa, V domains shown)
VH: EVQLVESGGGLVKPGGSLRLSCAASGFTFSSYAMSWVRQAPGKRLEWVASISSGGSTYYPDSVKGRFTISRDNAKNSLYLQMNSLRAEDTAVYYCARDGYPPFDYWGQGTTVTVSS
VL: DIQMTQSPSSVSASVGDRVTITCKASQNVGTNVAWYQQKPGKAPKALIYSASYRYSGVPSRFSGSGSGTDFTLTISSLQPEDFATYYCQQYNSFPLTFGQGTKLEIKR
